From US8304236B2, “Modified biotin-binding protein” (Japan Tobacco Inc., priority 2008, dated 2012)
Residue numbers refer to the chain shown, from its start. Numbers in names are those of the source. Where “and” joins values, the source holds several entries; their conditions need not be identical. Equal entries are not always repeated.

B1: TM2: wild type tamavidin 2, biotin-binding protein from Pleurotus cornucopiae, amino acid sequence SEQ ID NO: 2 (protein, listed as Pleurotus cornucopiae)
chain: MSDVQSSLTGTWYNELNSKMELTANKDGTLTGKYLSKVGDVYVPYPLSGRYNLQPPAGQGVALGWAVSWENSKIHSATTWSGQFFSESSPVILTQWLLSSSTARGDVWESTLVGNDSFTKTAPTEQQIAHAQLHCRAPRLK
B2: TM2 D40NR104EK141E: TM2 mutant having mutation of D40N and R104EK141E; SEQ ID NO: 24 (protein)
chain: B1 chain with D40N, R104E, K141E
modifications: Synthetic TM2 D40NR104EK141E

How the values were obtained:
[1] = Isoelectric focusing electrophoresis (pI observed); assay type: physicochemical; conditions: pH 3 to 10 gel
Protocol: The isoelectric point of each low-pI TM2 was measured by isoelectric focusing electrophoresis using an XCell SureLock Mini-Cell (Invitrogen). In accordance with the instruction, each low-pI TM2 (500 ng) and an IEF sample buffer (pH 3 to 10 (2×), Invitrogen) were mixed and were added to a polyacrylamide gel (pH 3 to 10, IEF Gel, Invitrogen) at a pH ranging from 3 to 10, followed by electrophoresis at a variable voltage of 100 V for 1 hour, 200 V for 1 hour, and 500 V for 45 minutes in this order.
After the electrophoresis, the gel was shaken in a blotting buffer (0.7% acetic acid) for 10 minutes and then was transferred onto a PVDF membrane at 10 V for 1 hour using an XCell ll Blot Module (Invitrogen). The PVDF membrane was subjected to reaction with anti-TM2 rabbit antibody (PCT/W2006/326260) serving as a primary antibody and with alkaline phosphate-labeled anti-rabbit IgG antibody (BIO-RAD) serving as a secondary antibody, followed by detection of bands with Alkaline Phosphatase Substrate Kit II
The isoelectric point of the high-affinity TM2 was measured by isoelectric focusing electrophoresis using an XCell SureLock Mini-Cell (Invitrogen). […] The electric point of TM2 D40N having replacement of the […] amino acid was higher than that of the wild type TM2 also in the isoelectric focusing electrophoresis.
The isoelectric point of HALU TM2 was measured by isoelectric focusing electrophoresis using an XCell SureLock Mini-Cell (Invitrogen). In accordance with the instruction, bands of each HALU TM2 (4 μg) were detected by CBB staining. […] The observed isoelectric point of TM2 D40N was 9.7, and was reduced to 8.9 after introduction of mutation of R104E and was reduced to 7.3 to 7.5 after further introduction of mutation of K141E.

fibronectin = fibronectin (Homo sapiens, UniProt P02751); assay: Non-specific binding to fibronectin (fibronectin-immobilized microplate, biotinylated HRP, A450); conditions: absorbance at 450 nm
fibronectin, sequence (P02751 32-2477, species assumed): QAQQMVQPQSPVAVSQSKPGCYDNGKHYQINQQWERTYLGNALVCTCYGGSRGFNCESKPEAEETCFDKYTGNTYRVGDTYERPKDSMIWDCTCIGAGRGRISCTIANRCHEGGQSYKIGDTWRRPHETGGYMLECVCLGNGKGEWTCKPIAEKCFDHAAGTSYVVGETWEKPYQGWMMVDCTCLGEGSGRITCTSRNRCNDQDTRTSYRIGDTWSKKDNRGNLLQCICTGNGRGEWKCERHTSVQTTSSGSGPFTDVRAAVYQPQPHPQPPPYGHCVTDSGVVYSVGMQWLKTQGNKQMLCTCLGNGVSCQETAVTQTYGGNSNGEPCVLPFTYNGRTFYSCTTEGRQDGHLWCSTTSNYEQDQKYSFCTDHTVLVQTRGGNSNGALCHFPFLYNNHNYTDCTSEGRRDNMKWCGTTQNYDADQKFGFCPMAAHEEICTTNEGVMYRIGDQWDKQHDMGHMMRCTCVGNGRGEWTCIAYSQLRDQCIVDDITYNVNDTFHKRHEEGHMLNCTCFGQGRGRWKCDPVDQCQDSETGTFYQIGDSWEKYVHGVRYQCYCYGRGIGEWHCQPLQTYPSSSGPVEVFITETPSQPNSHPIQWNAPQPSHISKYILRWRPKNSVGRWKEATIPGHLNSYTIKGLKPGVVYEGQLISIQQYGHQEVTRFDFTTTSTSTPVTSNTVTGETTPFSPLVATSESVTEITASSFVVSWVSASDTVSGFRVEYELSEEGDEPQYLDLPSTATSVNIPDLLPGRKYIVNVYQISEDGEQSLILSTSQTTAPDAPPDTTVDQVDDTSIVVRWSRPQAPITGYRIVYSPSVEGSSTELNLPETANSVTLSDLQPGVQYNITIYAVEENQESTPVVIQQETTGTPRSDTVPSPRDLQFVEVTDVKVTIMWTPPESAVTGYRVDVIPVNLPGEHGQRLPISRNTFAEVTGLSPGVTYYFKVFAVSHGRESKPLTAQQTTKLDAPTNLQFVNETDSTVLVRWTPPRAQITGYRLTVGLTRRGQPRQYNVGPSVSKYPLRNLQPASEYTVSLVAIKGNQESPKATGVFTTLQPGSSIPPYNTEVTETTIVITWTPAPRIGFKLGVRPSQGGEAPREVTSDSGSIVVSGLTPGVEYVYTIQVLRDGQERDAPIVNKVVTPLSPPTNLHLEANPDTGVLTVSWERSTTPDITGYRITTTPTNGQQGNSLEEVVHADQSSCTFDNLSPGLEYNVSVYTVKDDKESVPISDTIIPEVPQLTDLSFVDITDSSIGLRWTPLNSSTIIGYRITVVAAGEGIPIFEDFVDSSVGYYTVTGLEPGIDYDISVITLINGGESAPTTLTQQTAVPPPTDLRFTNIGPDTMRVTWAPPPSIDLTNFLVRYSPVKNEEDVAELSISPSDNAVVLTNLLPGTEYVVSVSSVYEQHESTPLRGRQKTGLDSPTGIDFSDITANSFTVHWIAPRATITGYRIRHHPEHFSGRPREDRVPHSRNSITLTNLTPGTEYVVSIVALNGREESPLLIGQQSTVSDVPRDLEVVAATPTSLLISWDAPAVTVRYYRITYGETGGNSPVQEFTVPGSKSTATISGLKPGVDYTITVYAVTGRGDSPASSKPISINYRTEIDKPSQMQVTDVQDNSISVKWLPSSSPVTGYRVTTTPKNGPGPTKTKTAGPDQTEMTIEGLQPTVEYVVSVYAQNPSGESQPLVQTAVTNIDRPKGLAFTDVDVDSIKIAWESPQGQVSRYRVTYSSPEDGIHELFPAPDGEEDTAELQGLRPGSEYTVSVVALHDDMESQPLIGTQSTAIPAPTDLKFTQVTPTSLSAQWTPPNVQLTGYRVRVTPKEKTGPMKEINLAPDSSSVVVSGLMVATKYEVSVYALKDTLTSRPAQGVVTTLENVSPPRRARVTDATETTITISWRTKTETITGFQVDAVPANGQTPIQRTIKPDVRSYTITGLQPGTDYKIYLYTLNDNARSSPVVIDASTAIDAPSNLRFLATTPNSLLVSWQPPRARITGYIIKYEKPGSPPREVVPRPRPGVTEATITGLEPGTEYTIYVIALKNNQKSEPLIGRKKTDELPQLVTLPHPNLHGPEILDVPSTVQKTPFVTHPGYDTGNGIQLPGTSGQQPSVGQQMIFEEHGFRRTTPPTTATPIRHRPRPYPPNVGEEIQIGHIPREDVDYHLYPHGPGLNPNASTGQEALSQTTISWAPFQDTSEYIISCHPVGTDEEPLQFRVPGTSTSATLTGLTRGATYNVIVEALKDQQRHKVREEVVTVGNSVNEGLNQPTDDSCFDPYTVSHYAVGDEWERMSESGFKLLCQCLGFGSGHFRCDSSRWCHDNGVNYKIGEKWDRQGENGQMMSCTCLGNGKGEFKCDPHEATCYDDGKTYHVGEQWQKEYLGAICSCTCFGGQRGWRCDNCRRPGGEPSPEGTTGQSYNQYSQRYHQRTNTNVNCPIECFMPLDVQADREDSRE
Protocol: The fibronectin-binding of each low-pI TM2 was compared using a microplate to which fibronectin was immobilized. The concentration of fibronectin was adjusted to 50 μg/mL with a fixation solution exclusive for a New ELISA plate, and the fibronectin solution (50 μL) was added to each New ELISA plate (Sumitomo Bakelite), followed by shaking at 37° C. for 4 hours for immobilization. Then, the plate was washed with 0.1% Triton X-100-containing PBS (300 μL) three times and was then dried naturally.
TM2, K26A, K73Q, R104E, K141E, and R104EK141E mutants (50 μL each) were each added to the corresponding well of the plate and left at room temperature for 1 hour. The plate was washed with 300 μL/well of PBST (PBS buffer containing 0.1% Tween 20) three times. Then, biotinylated HRP diluted 5000 times with PBST containing 0.5% BSA was added at 50 μL/well and allowed to react with the mutant at room temperature for 1 hour. After washing with 300 μL/well of PBST three times, 50 μL/well of 1-Step Ultra TMB-ELISA solution was added to each well for color development. After termination of the color development with 50 μL/well of 2M sulfuric acid, absorbance at 450 nm was measured with an Infinite 200 microplate reader.
Non-specific binding of HALU TM2 to fibronectin was also investigated as in paragraph 1-10) of Example 1.

[2] = Biotin-binding test (Biacore 3000, biotin-LC-BSA immobilized)
Protocol: High-purity BSA (Sigma, 2 mg) and NHS-LC-biotin (Pierce, 1 mg) were dissolved in 50 mM sodium borate (pH 8.0, 1 mL) and were incubated at 4° C. for 2 hours. The solution was put into a dialysis tube (MWCO 6-8,000) and was dialyzed with 50 mM sodium carbonate (pH 6.7) at 4° C. overnight. The resulting biotin-LC-BSA conjugate (MW: 67 kDa, 30 μM) was used as a ligand for a Biacore (registered trademark) biosensor.
Biotin-LC-BSA and BSA serving as a negative control were immobilized on CM5 sensor chips by amine coupling method. The amount for immobilization was adjusted to about 200 RU. The chips to which BSA was immobilized were disposed in flow cells 1 and 3, while the chips to which biotin-LC-BSA was immobilized were disposed in flow cells 2 and 4.
Accordingly, seven step measurement (3.125, 6.25, […], 25, 50, 100, and 200 nM) was conducted from the lowest concentration, without recycling steps. The data of BSA as reference was deducted from the data of BSA-LC-biotin. The measurement was performed at 25° C. The resulting sensorgrams were subjected to reaction kinetics analysis using analysis software BIAevaluation ver. 4.1 with a 1:1 binding model to calculate the binding rate constant (ka) and the dissociation rate constant (kd). The dissociation constant (KD) was determined from kd/ka. In the case where no recycling step is employed, the Rmax (maximum amount of binding analyte) decreases at each measurement. Accordingly, in the analysis, the Rmax was calculated by conducting local fitting for each concentration, and only the data of analyte concentrations that were approximated to the 1:1 binding model was employed.
TM2 and HALU TM2 used as analytes were prepared by purification with 2-iminobiotin agarose in accordance with a common method and dialysis with 20MM KPi (pH 7) overnight. The analytes were each adjusted to about 50 μg/mL in 10 mM acetate buffer (pH 5, Biacore).
The immobilization of the ligand and measurement and analysis of specific interaction with the analytes were conducted as in paragraph 2-7-2).

human serum protein = assay: Non-specific adsorption of serum protein to HALU TM2-immobilized magnetic beads; assay type: binding; conditions: human serum diluted 800 times, anti-human IgG detection
Protocol: In this Example, non-specific adsorption of serum protein to HALU TM2-immobilized magnetic beads was investigated.
TM2 D40NR104E and TM2 D40NR104EK141E were bonded covalently to magnetic beads (Dynabeads M-270 Carboxylic Acid, Dynal) by the process described in paragraph 1-9) of Example 1, and the amount of human serum protein adsorbed to the beads was measured. The amount of each HALU TM2 immobilized to the magnetic beads was adjusted to 10 μg/100 μL beads. Human serum (CHEMICON) was diluted 800 times with a PBS buffer, and the HALU TM2-immobilized magnetic beads (50 μL) to which a certain amount of protein was immobilized were added to the diluted human serum, followed by mixing by turning the tube containing the beads upside down at room temperature for 15 minutes. The magnetic beads were washed with a PBS buffer containing 0.1% Tween 20 (PBST, 500 μL) four times and were then subjected to antigen-antibody reaction at room temperature for 15 minutes with HRP-labeled anti-human IgG mouse antibody (100 μL) diluted 5000 times with PBST containing 0.5% BSA. Subsequently, the beads were washed with PBST (500 μL) five times, followed by color development with 1-Step Ultra TMB-ELISA (100 μL). After termination of the color development with 2M sulfuric acid (100 μL), the magnetic beads were collected with a magnet. The absorbance at 450 nm of the supernatant was measured with an Infinite 200 microplate reader.

Row | Molecule | pI observed [1] | pI observed ([1]; listed as TM2WT) | pI observed ([1]; listed as wild type TM2) | Binding of fibronectin (A450) (fibronectin; listed as wild type TM2) | dissociation from biotin-LC-BSA ([2]; dissociation monitored for 60 minutes) | Non-specific binding to serum protein (A450) (human serum protein) | Binding of fibronectin (A450) (fibronectin) | Binding of fibronectin (A450) (fibronectin; listed as D40NR104EK141E) | ka ([2]; Biotin-BSA (22.4 Å)) | kd ([2]; Biotin-BSA (22.4 Å), values in parentheses) | Non-specific binding to serum protein (A450) (human serum protein; listed as D40NR104EK141E)
1 | B1 | 8.5 to 8.8 | 8.5 to 8.8 | 8.2 to 8.6 and 8.5 to 8.8 | 1.3 to 1.4 | not dissociated | 0.67 | – | – | – | – | –
2 | B2 | 7.3 to 7.5 | – | – | – | – | low | extremely low | 0.12 | 1.5 × 10^6 | (1.4 × 10^−8) | 0.45
